According to the supplement of paper PMC10724198:
± gives the standard deviation of the averaged measurements.

Assays:
Saccharomyces cerevisiae [1] = experiment: protein stability index of tFT-peptide fusion (C-terminal peptide) (PSI (0-1 scale)); higher = more stable (slower turnover); conditions: genetic background: wild type; temperature: 30 C
Saccharomyces cerevisiae [2] = experiment: as above
Procedure: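 MPS profiling in S. cerevisiae of the tFT-X12 degron library: putative degron peptides plus stable controls, 12 aa, fused to the C-terminus of a sfGFP-mCherry timer. Cells are FACS-sorted into 8 mCherry/sfGFP bins and deep-sequenced. PSI runs from 0 (unstable) to 1 (stable). Backgrounds are wild type, das1Δ and doa10Δ at 30 °C, and wild type, das1Δ, cdc34-1 and cdc53-1 at 37 °C; 2-3 technical replicates each.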

[3] = genetic background: cdc34-1, temperature: 37 C
[4] = genetic background: cdc53-1, temperature: 37 C
[5] = genetic background: das1 deletion, temperature: 30 C
[6] = genetic background: das1 deletion, temperature: 37 C
[7] = genetic background: doa10 deletion, temperature: 30 C
[8] = genetic background: wild type, temperature: 30 C
[9] = genetic background: wild type, temperature: 37 C
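Further: PSI is a weighted mean of sequencing reads over stability bins, variants kept only with over 10 reads, mCherry proximal and sfGFP distal, peptide attached via GGGS linker.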

Sequence	protein stability index (Saccharomyces cerevisiae [1])	protein stability index (Saccharomyces cerevisiae [2]; [3])	protein stability index (Saccharomyces cerevisiae [2]; [4])	protein stability index (Saccharomyces cerevisiae [2]; [5])	protein stability index (Saccharomyces cerevisiae [2]; [6])	protein stability index (Saccharomyces cerevisiae [2]; [7])	protein stability index (Saccharomyces cerevisiae [2]; [8])	protein stability index (Saccharomyces cerevisiae [2]; [9])
GPILVWVMADWG	0.447 ± 0.041	0.43 ± 0.036	0.506 ± 0.028	0.328 ± 0.036	0.5493 ± 0.00096	0.293 ± 0.0078	0.337 ± 0.018	0.518 ± 0.012
FECLLFVNLLVI	0.288 ± 0.02	0.274 ± 0.0029	0.345 ± 0.014	0.24 ± 0.042	0.425 ± 0.018	0.153 ± 0.014	0.188 ± 0.03	0.349 ± 0.012
TTSHFCVVLVSV	0.32 ± 0.016	0.283 ± 0.042	0.307 ± 0.016	0.232 ± 0.039	0.382 ± 0.009	0.182 ± 0.012	0.217 ± 0.032	0.356 ± 0.013
PFLLLVSPISSC	0.433 ± 0.011	0.416 ± 0.037	0.403 ± 0.01	0.301 ± 0.028	0.4637 ± 0.0012	0.271 ± 0.0057	0.302 ± 0.028	0.445 ± 0.014
LRRVHRIKLQVC	0.178 ± 0.094	0.254 ± 0.06	0.431 ± 0.035	0.288 ± 0.029	0.477 ± 0.014	0.0938 ± 0.0029	0.0996 ± 0.015	0.102 ± 0.0019
LYYSVIFLFLSW	0.339 ± 0.047	0.255 ± 0.0028	0.306 ± 0.023	0.232 ± 0.033	0.371 ± 0.016	0.272 ± 0.036	0.208 ± 0.026	0.334 ± 0.033
VVATLRCLRCSV	0.405 ± 0.021	0.474 ± 0.014	0.501 ± 0.052	0.346 ± 0.035	0.5244 ± 0.0026	0.236 ± 0.014	0.273 ± 0.043	0.441 ± 0.013
WFFRLFFLFFSG	0.383 ± 0.0048	0.34 ± 0.008	0.335 ± 0.019	0.4 ± 0.028	0.502 ± 0.019	0.563 ± 0.022	0.371 ± 0.019	0.412 ± 0.02
SLICLSVGVLLR	0.292 ± 0.0045	0.128 ± 0.024	0.181 ± 0.061	0.189 ± 0.029	0.337 ± 0.071	0.205 ± 0.003	0.188 ± 0.039	0.258 ± 0.021
FFLFLFFFLRGS	0.467 ± 0.023	0.4853 ± 0.0033	0.53967 ± 0.00022	0.405 ± 0.025	0.533 ± 0.035	0.419 ± 0.03	0.402 ± 0.035	0.511 ± 0.021
VCFCFLRFLSLL	0.262 ± 0.016	0.543 ± 0.043	0.685 ± 0.014	0.572 ± 0.031	0.716 ± 0.031	0.176 ± 0.0026	0.191 ± 0.0057	0.24 ± 0.019
VGEQEVVGIGGV	0.695 ± 0.018	0.674 ± 0.039	0.7077 ± 0.0065	0.653 ± 0.021	0.735 ± 0.046	0.642 ± 0.026	0.646 ± 0.023	0.719 ± 0.03
CLQYRACLILLT	0.425 ± 0.0091	0.406 ± 0.014	0.3653 ± 0.0014	0.365 ± 0.015	0.494 ± 0.0041	0.456 ± 0.0093	0.343 ± 0.015	0.425 ± 0.0086
GGSKIGFTVGGG	0.721 ± 0.018	0.686 ± 0.024	0.741 ± 0.017	0.645 ± 0.013	0.738 ± 0.013	0.642 ± 0.018	0.664 ± 0.02	0.725 ± 0.0018
IFLLLRRIIALS	0.107 ± 0.12	0.126 ± 0.0094	0.326 ± 0.044	0.411 ± 0.047	0.554 ± 0.023	0.0418 ± 0.017	0.0337 ± 0.0068	0.0499 ± 0.018
PCYRPPLPALLS	0.501 ± 0.013	0.613 ± 0.013	0.69 ± 0.0093	0.62 ± 0.036	0.705 ± 0.024	0.395 ± 0.024	0.43 ± 0.03	0.568 ± 0.033
FFTLSTVKLLRV	0.508 ± 0.044	0.497 ± 0.025	0.521 ± 0.02	0.427 ± 0.022	0.552 ± 0.0087	0.385 ± 0.0046	0.412 ± 0.027	0.5379 ± 0.0018
DFWMLLFGIIFA	0.449 ± 0.019	0.488 ± 0.041	0.521 ± 0.011	0.389 ± 0.027	0.565 ± 0.033	0.387 ± 0.015	0.4 ± 0.027	0.538 ± 0.017
KKNITRLKNKMT	0.416 ± 0.14	0.535 ± 0.032	0.676 ± 0.033	0.678 ± 0.031	0.691 ± 0.059	0.212 ± 0.045	0.199 ± 0.093	0.392 ± 0.086
GVVCCVVVGRMG	0.503 ± 0.053	0.619 ± 0.024	0.659 ± 0.024	0.474 ± 0.024	0.665 ± 0.018	0.445 ± 0.032	0.451 ± 0.013	0.63558 ± 6.8e-05
